Results reported in US9169496B2, “Method for the enzymatic production of butadiene” (Scientist of Fortune, S.A., priority 2011, dated 2015).

B1: Rh. leguminosarum: purified 4-methyl-5-(2-hydroxyethyl)thiazole kinase from Rhizobium leguminosarum (SEQ ID NO:3) (protein, listed as Rhizobium leguminosarum)
chain: MQTRTTPGAMLKAMREKPPLVQCITNYVAMNIAANVLLAAGASPAMVHAAEEAGEFAAIASALTINIGTLSTQWIDGMQAAAKAATSAGKPWVLDPVAHYATAFRRNAVAELLALKPTIIRGNASEIIALAGGESRGQGVDSRDPVEQAEGSARWLAERQRAVVAVTGAVDFVTDGERAVRIEGGSALMPQVTALGCSLTCLVGAFAATAPEDIFGATVAALSTFAIAGEEAALGAAGPGSFSWRFLDALAALDAETLDARARISAA
B2: B. subtilis: purified 4-methyl-5-(2-hydroxyethyl)thiazole kinase from Bacillus subtilis (SEQ ID NO:1) (protein, listed as Bacillus subtilis)
chain: MDAQSAAKCLTAVRRHSPLVHSITNNVVTNFTANGLLALGASPVMAYAKEEVADMAKIAGALVLNIGTLSKESVEAMIIAGKSANEHGVPVILDPVGAGATPFRTESARDIIREVRLAAIRGNAAEIAHTVGVTDWLIKGVDAGEGGGDIIRLAQQAAQKLNTVIAITGEVDVIADTSHVYTLHNGHKLLTKVTGAGCLLTSVVGAFCAVEENPLFAAIAAISSYGVAAQLAAQQTADKGPGSFQIELLNKLSTVTEQDVQEWATIERVTVS
B3: E. coli: purified 4-methyl-5-(2-hydroxyethyl)thiazole kinase from Escherichia coli (SEQ ID NO:2) (protein)
chain: MQVDLLGSAQSAHALHLFHQHSPLVHCMTNDVVQTFTANTLLALGASPAMVIETEEASQFAAIASALLINVGTLTQPRAQAMRAAVEQAKSSQTPWTLDPVAVGALDYRRHFCHELLSFKPAAIRGNASEIMALAGIANGGRGVDTTDAAANAIPAAQTLARETGAIVVVTGEMDYVTDGHRIIGIHGGDPLMTKVVGTGCALSAVVAACCALPGDTLENVASACHWMKQAGERAVARSEGPGSFVPHFLDALWQLTQEVQA
modifications: E. coli
B4: Short chain alcohol dehydrogenase-like protein from Marinobacter sp. ELB17 (SEQ ID NO: 15): short-chain dehydrogenase from Marinobacter sp. ELB17 (Uniprot A3JCC5) (protein)
chain: MNYFVTGGTGFIGRFLIARLLARGAIVHVLVREQSVQKLADLREKLGADEKQIKAVVGDLTAPGLGLDKKTLKQLSGKIDHFFHLAAIYDMSASEESQQAANIDGTRAAVAAAEALGAGIFHHVSSIAVAGLFKGTFREDMFAEAGKLDHPYFSTKHESERVVRDECKLPFRIYRPGMVIGDSATGEMDKVDGPYYFFKMIQKIRGALPQWVPTIGLEGGRLNIVPVNFVADALDHIAHLPDEDGKCFHLVDSDPYKVGEILNIFCEAGHAPKMGMRIDSRMFGFVPPFIRQSLKNLPPVKRMGRALLDDLGIPASVLSFINYPTRFDARETERVLQGTGIEVPRLPDYAPVIWDYWERNLDPDLFTDRTLRGTVEGKVCVVTGATSGIGLATAEKLADAGAILVIGARTQETLDQVSAQLNARGADVHAYQCDFADMDACDRFIQTVSENHGAVDVLINNAGRSIRRSLDKSFDRFHDFERTMQLNYFGSLRLIMGFAPAMLERRRGHIINISSIGVLTNAPRFSAYVASKAALDSFSRCAAAEWSDRHVCFTTINMPLVKTPMIAPTKIYDSVPTLSPEEAADMVVNAIVYRPKRIATRMGVFAQVLNAVAPKASEILMNTGYKMFPDSMPKKGKEVSAEKGASTDQVAFAAIMRGIHW
modifications: Marinobacter sp. ELB17
B5: Short chain alcohol dehydrogenase-like protein from Marinobacter algicola (SEQ ID NO: 16): short-chain dehydrogenase from Marinobacter algicola (Uniprot A6EUH6) (protein)
chain: MNYFLTGGTGFIGRFLVEKLLARGGTVHVLVREQSQEKLDKLRERWGADESRVKAVIGDLTSPNLGIDAKTMKSLKGNIDHFFHLAAVYDMGADEKSQQATNIEGTHSAVNAAAAMEAGCFHHVSSIAAAGLFKGTFREDMFEEAEKLDHPYLLTKHESEKVVRESCKVPFRIYRPGMVVGHSKTGEMDKVDGPYYFFKMIQKIRHALPQWVPTIGIEGGRLNIVPVDFVVNAMDHIAHLKGEDGNCFHLVDSDPYKVGEILNIFSEAGHAPRMAMRIDSRMFGFVPPFIRQSLKNLPPVKRLTTALLDDMGIPPSVLSFINYPTRFDARETERVLKDTGIVVPRLESYAAVLWDFWERNLDPDLFKDRTLRGTVEGKVCVITGGTSGIGLATAQKLADAGAILVIGARKKERLMEVAAELEARGGNVHAYQCDFADMDDCDRFVKTVLDNHGHVDVLVNNAGRSIRRSLALSFDRFHDFERTMQLNYFGSVRLIMGFAPAMLERRRGHVVNISSIGVLTNAPRFSAYVASKSALDTFSRCAAAEWSDRNVTFTTINMPLVKTPMIAPTKIYDSVPTLTPDEAAEMVADAIVYRPKRIATRLGIFAQVMQALAPKMGEIVMNTGYRMFPDSPAAAGSRSGAKPKVSSEQVAFAAIMRGIYW
modifications: Marinobacter algicola DG893
B6: Short chain alcohol dehydrogenase-like protein from Marinobacter manganoxydans (SEQ ID NO: 14): short-chain dehydrogenase from Marinobacter manganoxydans (Uniprot G6YQS9) (protein)
chain: MNYFLTGGTGFIGRFLVEKLLARGGTVHVLVREQSQDKLDKLRERWGADETQVKAVIGDLTSKNLGIDAKTMKALKGKIDHFFHLAAVYDMGADEEAQQATNIEGTRAAVNAAEAMGAKHFHHVSSIAAAGLFKGIFREDMFEEAEKLDHPYLRTKHESEKVVREECKVPFRIYRPGMVIGHTATGEMDKVDGPYYFFKMIQKIRHALPQWVPTIGVEGGRLNIVPVDFVVNAMDHIAHLEGEDGKCFHLVDTDPYKVGEILNIFSEAGHAPRMGMRIDSRMFGFIPPFIRQSLKNLPPVKRLTSAILDDMGIPPSVMSFINYPTRFDARETERVLKGTGIEVPRLPDYAPVIWDYWERNLDPDLFKDRTLKGTVEGRVCVVTGATSGIGLATAQKLADAGAILVIGARKLERLKEVAAELESRGASVHAYPCDFSDMDACDEFVKTVLDNHGQVDVLVNNAGRSIRRSLDLSFDRFHDFERTMQLNYFGSVRLIMGFAPKMLENRRGHVVNISSIGVLTNAPRFSAYVASKSALDAFSR
modifications: Marinobacter manganoxydans
B7: Short chain alcohol dehydrogenase-like protein from Hahella chejuensis: short-chain dehydrogenase from Hahella chejuensis (Uniprot Q2SCE0; SEQ ID NO: 17) (protein, listed as Hahella chejuensis)
chain: MNYFVTGGTGFIGRFLVPKLLKRGGTVYLLVREASLPKLDELRERWNASDEQVVGVVGDLAQPMLGVSEKDAAMLRGKVGHFFHLAAIYDMQASAESQEQANIEGTRNAVKLADSLKAACFHHVSSIAAAGLYRGIFREDMFEEAEKLDNPYLRTKHESEKVVREECQTPWRVYRPGMVVGHSKTGEIDKIDGPYYFFKLIQKLRSALPQWMPTVGLEGGRINIVPVDFVVDAMDHIAHAEGEDGKCFHLTDPDPYKVGEILNIFAEAGHAPKMAMRIDARMFGFIPPMIRQGIARLPPVQRMKNAVLNDLGIPDEVMSFINYPTRFDNRETERLLKGTAIAVPRLQDYSPAIWDYWERHLDPDLHKDRTLRGAVEGRVCVITGATSGIGLSAARKLAEAGAKVVIAARTLEKLQEVKKELEELGGEVYEYSVDLSDLEDCDRFVANVLKDLGHVDVLVNNAGRSIRRSIQHAFDRFHDFERTMQLNYFGSLRLIMGFAPSMLERRRGHIVNISSIGVLTNAPRFSAYVASKAALDAFSRCAAAEFSDKNVTFTTINMPLVRTPMISPTKIYDSVPTLTPEEAADLVAEAIIHRPKRIATRLGVFAQVLHSMAPKFSEIIMNTGFKMFPDSSAATGGKDGEKPKVSTEQVAFAAIMRGIHW

Experiment: Screening for crotyl alcohol phosphorylation activity (pyruvate kinase/lactate dehydrogenase coupled ADP assay)
Assay type: biochemical
Conditions: 50 mM crotyl alcohol (cis and trans mixture), 5 mM ATP, 0.05 mg/ml enzyme, 37° C., pH 7.5
Method: The release of ADP that is associated with crotyl alcohol phosphorylation was quantified using the pyruvate kinase/lactate dehydrogenase coupled assay (FIG. 5). The purified 4-methyl-5-(2-hydroxyethyl)thiazole kinases from Escherichia coli (SEQ ID NO:2), Bacillus subtilis (SEQ ID NO:1), Rhizobium leguminosarum (SEQ ID NO:3) were evaluated for their ability to phosphorylate crotyl alcohol releasing ADP. The studied enzymatic reaction was carried out under the following conditions at 37° C.: • 50 mM Tris-HCl pH 7.5 • 10 mM MgCl2 • 100 mM KCl • 5 mM ATP • 0.4 mM NADH • 1 mM Phosphoenolpyruvate • 3 U/ml Lactate dehydrogenase • 1.5 U/ml Pyruvate kinase • 50 mM crotyl alcohol, mixture cis and trans • The pH was adjusted to 7.5
Each assay was started by addition of a particular enzyme at a concentration 0.05 mg/ml and the disappearance of NADH was monitored by following the absorbance at 340 nm.

Question: With B1 as the molecule, how does the “Activity, micromole/min · mg protein” value read?
Answer: Its value is 0.087 micromole/min · mg protein.

Question: Which “Activity, micromole/min · mg protein” value does the source give for B2 here?
Answer: Its value is 0.014 micromole/min · mg protein.

Question: Which “Activity, micromole/min · mg protein” value does the source give for B3 here?
Answer: The value was 0.220 micromole/min · mg protein.

Same assay, conditions: 50 mM crotyl alcohol, 37° C.

Question: With B1 as the molecule, how does the “ADP production in the presence of crotyl alcohol” value read?
Answer: The value was “reproducible and significant increase in ADP production”.

Question: With B3 as the molecule, how does the “ADP production in the presence of crotyl alcohol” value read?
Answer: Its value is “reproducible and significant increase in ADP production”.

Experiment: Crotonyl-CoA reductase assay, NADPH decrease at 340 nm
Assay type: biochemical
Conditions: 5 mM trans crotonyl-CoA, 0.1-0.4 mM NADPH, 0.5-1 mg/ml enzyme, 37° C., pH 7.5
From the text: Sequences of short-chain dehydrogenases/reductases inferred from the genomes of prokaryotic organisms were generated by oligonucleotide concatenation to fit the codon usage of E. coli. […] The genes thus synthesized were cloned in a pET25b expression vector and the proteins were produced according to the protocol described in Example 1.

Question: For B4, which “Activity, μmol/min/mg protein” value is on record?
Answer: Its value is 1.2 μmol/min/mg protein.

Question: With B5 as the molecule, how does the “Activity, μmol/min/mg protein” value read?
Answer: Its value is 4 μmol/min/mg protein.

Question: Which “Activity, μmol/min/mg protein” value does the source give for B6 here?
Answer: The value was 7.5 μmol/min/mg protein.

Question: For B7, which “Activity, μmol/min/mg protein” value is on record?
Answer: The value was 4.9 μmol/min/mg protein.
